Measured values from the supplement of paper PMC7877785.
± gives the uncertainty stated by the source.

Assay: self-splicing fitness, log relative to wild type (ln ratio); higher = more splicing; Tetrahymena group I intron in knt gene, E. coli kanamycin selection, DiMSum; sequences stand for … in CUCUCU…GGAGGGAAAAGUUAUCAGGCAUGCACCUGGUAGCUAGUCUUUAAACCAAUAGAUUGCAUCGGUUUAAAAGGCAAGACCGUCAAAUUGCGGGAAAGGGGUCAACAGCCGUUCAGUACCAAGUCUCAGGGGAAACUUUGAGAUGGCCUUGCAAAGGGUAUGGUAAUAAGCUGACGGACAUGGUCCUAACCACGCAGCCAAGUCCUAAGUCAACAGAUCUUCUGUUGAUAUGGAUGCAGUUCACAGACUAAAUGUCGGUCGGGGAAGAUGUAUUCUUCUCAUAAGAUAUAGUCGGACCUCUCCUUAAUGGGAGCUAGCGGAUGAAGUGAUGCAACACUGGAGCCGCUGGGAACUAAUUUGUAUGCGAAAGUAUAUUGAUUAGUUUUGGAGUACUCGUGGUCG
Method in brief: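 A randomised library covering all eight P1ex-region intron nucleotides was built with the intron in the knt kanamycin-resistance gene on pET-22b(+) and held in E. coli BL21(DE3). Cells were grown overnight at 37°C or 30°C on LB agar, with or without 25 μg/mL kanamycin, plus 100 μg/mL carbenicillin, 50 μM IPTG and 0.2% rhamnose, and pooled colonies were amplicon-sequenced on an Illumina HiSeq 2500. DiMSum fitness is the error-weighted combination of wild-type-normalised replicate fold changes, kanamycin versus none.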

Sequence | self-splicing fitness (ln) (30 °C) | self-splicing fitness (ln) (37 °C)
CCUGAGCAAUAUUACGCCAC | -3.2 ± 0.45 | -1.35 ± 0.36
UUUCAGCAAUAUUACGGCUA | 0.189 ± 0.14 | 0.336 ± 0.12
ACCCAGCAAUAUUACGUCAC | -3.29 ± 0.14 | -2.18 ± 0.15
GCUUAGCAAUAUUACGAUAG | -2.11 ± 0.096 | -0.174 ± 0.097
AGAGAGCAAUAUUACGGGCG | -3.07 ± 0.34 | -2.3 ± 0.5
UUGCAGCAAUAUUACGAUCC | -3.64 ± 0.47 | -1.68 ± 0.35
UGUCAGCAAUAUUACGCUCA | 0.0629 ± 0.11 | -0.236 ± 0.11
GCGAAGCAAUAUUACGUAUA | -2.18 ± 0.29 | 0.188 ± 0.43
AUAAAGCAAUAUUACGAGGC | -3.29 ± 0.17 | -2.7 ± 0.32
AAUAAGCAAUAUUACGCCCG | -1.39 ± 0.15 | -0.203 ± 0.18
AUAUAGCAAUAUUACGUAGC | -4.04 ± 0.39 | -2.54 ± 0.33
UGCUAGCAAUAUUACGUAAA | -1.9 ± 0.094 | -1.6 ± 0.13
UAUAAGCAAUAUUACGCCCA | -0.492 ± 0.13 | -0.495 ± 0.2
CUGAAGCAAUAUUACGCAUG | -0.485 ± 0.063 | 0.071 ± 0.1
UGCUAGCAAUAUUACGGACC | 0.158 ± 0.22 | -1.06 ± 0.22
GCGAAGCAAUAUUACGCCGU | -3.41 ± 0.35 | -1.81 ± 0.29
UUCUAGCAAUAUUACGAGUA | -0.88 ± 0.15 | -0.0809 ± 0.13
CCCAAGCAAUAUUACGGGCG | -3.29 ± 0.17 | -1.79 ± 0.15
UUGUAGCAAUAUUACGCAGU |  | -2.1 ± 0.3
CCACAGCAAUAUUACGUAUA | -4.05 ± 0.24 | -2.84 ± 0.23
UCGGAGCAAUAUUACGGAAA |  | -2.64 ± 0.36
ACCAAGCAAUAUUACGAUGA | -1.97 ± 0.1 | -1.36 ± 0.11
CGCGAGCAAUAUUACGCUGA | -2.03 ± 0.22 | -1.78 ± 0.35
UAGAAGCAAUAUUACGAGGC |  | -2.21 ± 0.42
AGCUAGCAAUAUUACGGAUA | -2.55 ± 0.17 | -1.87 ± 0.14

Sequence | self-splicing fitness (ln) (30 °C) | self-splicing fitness (ln) (37 °C)
UCCGAGCAAUAUUACGACCU | -3.35 ± 0.26 | -2.74 ± 0.36
GGGAAGCAAUAUUACGUGAU | -2.04 ± 0.1 | -1.83 ± 0.16
UACGAGCAAUAUUACGGUGC | -3.46 ± 0.4 | -2.43 ± 0.48
GUGCAGCAAUAUUACGCCCU | -1.57 ± 0.14 | -0.805 ± 0.16
GGUGAGCAAUAUUACGAACA | -0.64 ± 0.34 | 0.394 ± 0.47
AAGUAGCAAUAUUACGAUAA | -1.36 ± 0.12 | -1.09 ± 0.13
CCGGAGCAAUAUUACGCCUU | -2.67 ± 0.36 | -3.35 ± 0.47
UAGAAGCAAUAUUACGAAUC | -3.48 ± 0.4 | -2.65 ± 0.36
GUCCAGCAAUAUUACGUACA | -1.73 ± 0.1 | -0.367 ± 0.1
AUAAAGCAAUAUUACGUUAC | -2.55 ± 0.13 | -0.574 ± 0.12
GGUAAGCAAUAUUACGUACA | -0.648 ± 0.1 | 0.294 ± 0.14
GCUCAGCAAUAUUACGGGAG | -2.46 ± 0.12 | -1.22 ± 0.11
UGGCAGCAAUAUUACGGAGA | -2.9 ± 0.42 | -1.46 ± 0.41
CCCCAGCAAUAUUACGGCCG | -3.62 ± 0.17 | -1.88 ± 0.16
ACUUAGCAAUAUUACGUCAA | -4.05 ± 0.33 | -3.36 ± 0.3
ACAUAGCAAUAUUACGUCGG | -2.1 ± 0.099 | -1.16 ± 0.1
UGUGAGCAAUAUUACGUCGC | -1.15 ± 0.21 | 
AGUUAGCAAUAUUACGCCCG | -1.52 ± 0.44 | 0.364 ± 0.45
CGGGAGCAAUAUUACGGCGU | -3.6 ± 0.26 | -1.73 ± 0.21
GAGGAGCAAUAUUACGCUGA | -2.84 ± 0.49 | -2.07 ± 0.34
ACCUAGCAAUAUUACGAGGG | -3.45 ± 0.17 | -1.4 ± 0.12
AUUCAGCAAUAUUACGGAUU | -4.2 ± 0.22 | -2.21 ± 0.2
UAACAGCAAUAUUACGGAGA | -3.27 ± 0.21 | -1.1 ± 0.11
UUUUAGCAAUAUUACGGACU | -2.67 ± 0.39 | -0.49 ± 0.35
